Assay results from patent publication US20210403538A1.

Tests used:
[1] = target: MARV GP [change] (Lake Victoria marburgvirus) (UniProt Q1PD50)
[2] = target: SUDV GP [change] (Sudan ebolavirus) (UniProt Q7T9D9)
[3] = target: EBOV GP [change] (Zaire ebolavirus (EBOV), strain Makona); test: ELISA, coated recombinant GP ΔTM
[4] = target: BDBV GP [change] (Bundibugyo ebolavirus (BDBV), strain 200706291 Uganda); test: ELISA, coated recombinant GP ΔTM

Binder	EC50 [1]	EC50 [2]	EC50 [3]	EC50 [4]
EBOV-442 (antibody, V domains shown) VH: EVQLVESGGGLVKPGGSLRLSCTGSGGTGFTFKYAGMSWVRQAPGKGPEWIGRIKSRIDGGTTDYAAPVKDRFIVSRDDSRNTLYLQMNSLKTEDTAVYYCATGSGKGPSASFGESYYYYDFINVWGKGTTVTVSS VL: ESVLTQSPGTLSLSPGERATLSCRASQSISRKYLAWYQQKPGQAPRLLIYGSSSRATGIPDRFSGSGSGTDFTLTISRLEPEDFAVYYCHQYESSPWTFGQGTKVEIK	> 10 mg/L	0.006 mg/L	0.001 mg/L	0.003 mg/L
EBOV-508 (antibody, V domains shown) VH: QVQLVQSGAEVKKPGASVKVSCKASGYTFINYYMHWVRQAPGQGLEWMGTINPSTGRPNYAQKFQGRVTLTRDTSTTTVDMELSSLTSEDTAVYYCVSFQFYFDYWGQGTLVTVSS VL: DIQMTQSPSAMSPSVGDRVTITCRASQGINNYLAWFQQKPGKVPKRLIYAASNLQSGVPSRFSGSGSGTEFTLTISSLQPEDFATYYCLQHNSYPWTFGQGTKVEIN	> 10 mg/L	0.003 mg/L	0.002 mg/L	0.005 mg/L
EBOV-514 (antibody, V domains shown) VH: QVQLQESGPGLVKPSQTLSLTCTVSGASITGGDDFWSWIRQPPGKGLEWIGFIHHSGNAYYRSSLKSRVHFSVDTSKDQFSLTLTSVTAADTAVYYCARDKAQAYGLLYHYHTDVWGKGTLVTVSS VL: EIVMTQSPATLSVSPGERATLSCRASQSVSSNLAWYQQKPGLAPRLLIYGAFTRATDIPDRFSGSGSGTEFTLTISSLQSEDFAIYYCQYYNDWPPGYTFGQGTKLEIK	> 10 mg/L	0.015 mg/L	0.007 mg/L	0.01 mg/L
EBOV-434 (antibody, V domains shown) VH: QVQLVQSGAEVKKPGASVKVSCKASGYTFTGYYMFWVRQAPGQGLEWMGWINPNSGGTNYTQKFQGRVTMTRDTSISTAYMELSRLKSDDTAVYYCARDSGELLFVGSDVWGQGTLVTVSS VL: DIQMTQSPSSVSASVGDRVTITCRASLDISYWLAWYQQKPGKAPKLLIYAASNLQSGVPSRFSGSGSGTDFTLTISSLQPEDFATYYCQQANSFPQTFGQGTRLELK	> 10 mg/L	1.11 mg/L	0.304 mg/L	0.415 mg/L
EBOV-446 (antibody, V domains shown) VH: QVQLVQSGAEVKKPGASVKVSCKASGYTFTDYYIYWVRQAPGQGLEWMGWLNPNSGGTDYAQKFQGRVTMTRDTSIRTAYMDLSRLRSDDTAVYYCARGRRHGAYVDWGQGTLVTVSS VL: DIQLTQSPSFLSASVGDRVTITCRASQGISTYLAWYQQKPGKAPNLLIYDTSTLQSGVPSRFSGSASGTEFTLTISSLQPEDFATYYCQQLNFYLGGLTFGQGTRLEIK	> 10 mg/L	0.722 mg/L	0.009 mg/L	0.002 mg/L
EBOV-451 (antibody, V domains shown) VH: EVQLVESGGSVVRPGGSLRLSCAASGFKFDEYGMSWVRQAPGKGLEWVSGITWNGGVRTYADSVKGRFTISRDNAKNSVYLQMKSLRGEDTALYYCVSWGERYDAYFDYWGQGTLVTVSS VL: EIVLTQSPGSLSLSPGERATLSCRASQSVNSRYFAWYQQRPGQAPRLLIYATSTRATGIPDRFSGSGSGTDFTLTISRLEPEDFAVYSCQQYGSSPYTFGQGTKLEIK	> 10 mg/L	0.003 mg/L	0.001 mg/L	0.007 mg/L
EBOV-520 (antibody, V domains shown) VH: QVQLQESGPGLGKPSETLSLSCTVSGASIRGYFWNWIRQPPGKGLEWIGYIHSTGSTNYNPSLKSRVTISVDTSKNQVSLNVNSVTAADTAVYFCARGAWNVATVYYYYGMDVWGQGTLVTVSS VL: EIVLTQSPGTLSLSPGERATLSCRASQSVSSSYFAWYQQKPGQAPRLLISGTSTRAPGIPDRFSGSGSGTDFTLTISRLEPEDFAVYFCQQYGNSLYTFGQGTKLEIK	> 10 mg/L	0.136 mg/L	0.012 mg/L	0.072 mg/L
EBOV-510 (antibody, V domains shown) VH: QVQLQESGPGLVKPSQTLSLTCTVSGGSITSGDYYLTWVRQPPGKGLEWIGHIYYSGSTSYNPSLKSRLLMSVDTSKNQFSLRLSSVTAADTAVYYCARESDGDPSRLYFYFAMDVWGQGTLVTVSS VL: QSALTQPASVSGSPGQSITISCTGTSSDVGGSYFVSWYQHHPGKAPKLMISEVSNRPSGVSNRFSGSKSGNTASLTISGLRTEDEADYYCSSYTSNTTLVFGGETKVTVL	> 10 mg/L	3.09 mg/L	0.143 mg/L	0.261 mg/L
EBOV-524 (antibody, V domains shown) VH: QVQLVESGGGVVQPGGSLRLSCAASGFKFSTYGMNWVRQVPGQGLEWVSFVRHDGSNKYYSDSVKGRFTIFRDNSNNKLYLQMNNLRAEDTAVYYCAKDVLDCSRADCFIYYYYMDVWGKGTLVTVSS VL: DIQMTQSPSSVSASPGDRVTITCRASQTISGWLAWYQQKPGKAPKLLIYDVSTLQSGVPSRFSGGGSGTEFTFTISSLQPEDYATYFCQQGNRIPLSFGGGTRVEIK	> 10 mg/L	0.701 mg/L	0.123 mg/L	0.146 mg/L
EBOV-517 (antibody, V domains shown) VH: EVQLVESGGGLVQPGGSLRLSCGASGFTFNKYWMTWVRQAPGKGLEWVANINQDGSEKYFAESVKGRFTVSRDNAKNSLYLQMNSLRAEDTAVYYCARGASIEVEILYYYHMDVWGKGTLVTVSS VL: EIVMTQSPATLSVSPGERATLSCRASQSITTHLAWYQQKPGQAPRLLIYDTSTRATGIPARFSGSGSGTEFTLTISNMQSEDFAVYYCQQYHTWPPLTFGGGTKVEIK	> 10 mg/L	1.69 mg/L	0.042 mg/L	0.865 mg/L
EBOV-507 (antibody, V domains shown) VH: QVQLVQSGAEVKKPGASVKVSCKASGYTFNNYLINWVRQAPGQGLEWMGWINPHSGGTEYAQQFQGRLTVTRDTSIRTAYMELRGLTFDDSAMYYCWIWFRSETFDFWGQGTLVTVSS VL: DIQMTQSPSAMSASVGDRVTITCRASQDISNYLAWFQQKPGQGPKRLIFEASILHSGVPSRFSGSGSGTEFTLTISSLQPEDFATYYCLQHNTYLTFGQGTKVEIK	> 10 mg/L	0.002 mg/L	0.001 mg/L	0.004 mg/L
EBOV-518 (antibody, V domains shown) VH: QVTLKESGPTLVKPTQTLTLTCTFSGFSMNSSGMSVTWIRQPPGKALECLALIYWDDDKWYGPSLETRVTITKDASKNQVVLTMTNMDPVDTATYYCAHSGGLVAGAFDYWGQGTLVTVSS VL: EIVMTQSPDSLTVSLGERATINCRSSQSVLYRVNSKNYLAWYQQKAGQTPKLIINWASTRESGVPDRFSGSGSGTDFTLTISSLQAEDVAVYYCQQYYNSPRTFGQGTKVEIK	0.78 mg/L	0.352 mg/L	0.283 mg/L	2.63 mg/L
EBOV-511 (antibody, V domains shown) VH: QLQLQESGPGLVKPSETLSLSCTVSGDSISANNYFWGWIRQPPGKELEWIGSIHNSGSTYYNPSLKSRVTTSVDTSRTQFSLKLHSVTAADAAIYYCARHLAPISGVIFIPSFFDSWGQGTLVTVSS VL: EIVMTQSPATLSVSPGERATLSCRASQSVSSNLAWYQQRPGQAPRLLIFDASTRATGVPARFSGSGSGTEFTLTISSLQSEDFALYYCQQYNDWPPRLTFGGGTKVEIK	> 10 mg/L	0.387 mg/L	0.094 mg/L	0.289 mg/L
